From paper PMC7614990 (Science (New York, N.Y.), 2021)

B1: HTATSF1 in the 17S U2 snRNP eluted with 3C protease (natural protein)
chain: SGTNLDGNDEFDEQLRMQELYGDGKDGDTQTDAGGEPDSLGQQPTDTPYEWDLDKKAWFPKITEDFIATYQANYGFSNDGASSSTANVEDVHARTAEEPPQEKAPEPTDARKKGEKRKAESGWFHVEEDRNTNVYVSGLPPDITVDEFIQLMSKFGIIMRDPQTEEFKVKLYKDNQGNLKGDGLCCYLKRESVELALKLLDEDEIRGYKLHVEVAKFQLKGEYDASKKKKKCKDYKKKLSMQQKQLDWRPERRAGPSRMRHERVVIIKNMFHPMDFEDDPLVLNEIREDLRVECSKFGQIRKLLLFDRHPDGVASVSFRDPEEADYCIQTLDGRWFGGRQITAQAWDGTTDYQVEETSREREERLRGWEAFLNAPEANRGLRRSDSVSASERAGPSRARHFSEHPSTSKMNAQETATGMAFEEPIDEKKFEKTEDGGEFEEGASENNAKESSPEKEAEEGCPEKESEEGCPKRGFEGSCSQKESEEGNPVRGSEEDSPKKESKKKTLKNDCEENGLAKESEDDLNKESEEEVGPTKESEEDDSEKESDEDCSEKQSEDGSEREFEENGLEKDLDEEGSEKELHENVLDKELEENDSENSEFEDDGSEKVLDEEGSEREFDEDSDEKEEEEDTYEKVFDDESDEKEDEEYADEKGLEAADKKAEEGDADEKLFEESDDKEDEDADGKEVEDADEKLFEDDDSNEKLFDEEEDSSEKLFDDSDERGTLGGFGSVEEGPLSTGSSFILSSDDDDDDI
B2: SF3B3 (natural protein)
chain: MFLYNLTLQRATGISFAIHGNFSGTKQQEIVVSRGKILELLRPDPNTGKVHTLLTVEVFGVIRSLMAFRLTGGTKDYIVVGSDSGRIVILEYQPSKNMFEKIHQETFGKSGCRRIVPGQFLAVDPKGRAVMISAIEKQKLVYILNRDAAARLTISSPLEAHKANTLVYHVVGVDVGFENPMFACLEMDYEEADNDPTGEAAANTQQTLTFYELDLGLNHVVRKYSEPLEEHGNFLITVPGGSDGPSGVLICSENYITYKNFGDQPDIRCPIPRRRNDLDDPERGMIFVCSATHKTKSMFFFLAQTEQGDIFKITLETDEDMVTEIRLKYFDTVPVAAAMCVLKTGFLFVASEFGNHYLYQIAHLGDDDEEPEFSSAMPLEEGDTFFFQPRPLKNLVLVDELDSLSPILFCQIADLANEDTPQLYVACGRGPRSSLRVLRHGLEVSEMAVSELPGNPNAVWTVRRHIEDEFDAYIIVSFVNATLVLSIGETVEEVTDSGFLGTTPTLSCSLLGDDALVQVYPDGIRHIRADKRVNEWKTPGKKTIVKCAVNQRQVVIALTGGELVYFEMDPSGQLNEYTERKEMSADVVCMSLANVPPGEQRSRFLAVGLVDNTVRIISLDPSDCLQPLSMQALPAQPESLCIVEMGGTEKQDELGERGSIGFLYLNIGLQNGVLLRTVLDPVTGDLSDTRTRYLGSRPVKLFRVRMQGQEAVLAMSSRSWLSYSYQSRFHLTPLSYETLEFASGFASEQCPEGIVAISTNTLRILALEKLGAVFNQVAFPLQYTPRKFVIHPESNNLIIIETDHNAYTEATKAQRKQQMAEEMVEAAGEDERELAAEMAAAFLNENLPESIFGAPKAGNGQWASVIRVMNPIQGNTLDLVQLEQNEAAFSVAVCRFSNTGEDWYVLVGVAKDLILNPRSVAGGFVYTYKLVNNGEKLEFLHKTPVEEVPAAIAPFQGRVLIGVGKLLRVYDLGKKKLLRKCENKHIANYISGIQTIGHRVIVSDVQESFIWVRYKRNENQLIIFADDTYPRWVTTASLLDYDTVAGADKFGNICVVRLPPNTNDEVDEDPTGNKALWDRGLLNGASQKAEVIMNYHVGETVLSLQKTTLIPGGSESLVYTTLSGGIGILVPFTSHEDHDFFQHVEMHLRSEHPPLCGRDHLSFRSYYFPVKNVIDGDLCEQFNSMEPNKQKNVSEELDRTPPEVSKKLEDIRTRYAF
B3: SF3B1 (natural protein)
chain: MAKIAKTHEDIEAQIREIQGKKAALDEAQGVGLDSTGYYDQEIYGGSDSRFAGYVTSIAATELEDDDDDYSSSTSLLGQKKPGYHAPVALLNDIPQSTEQYDPFAEHRPPKIADREDEYKKHRRTMIISPERLDPFADGGKTPDPKMNARTYMDVMREQHLTKEEREIRQQLAEKAKAGELKVVNGAAASQPPSKRKRRWDQTADQTPGATPKKLSSWDQAETPGHTPSLRWDETPGRAKGSETPGATPGSKIWDPTPSHTPAGAATPGRGDTPGHATPGHGGATSSARKNRWDETPKTERDTPGHGSGWAETPRTDRGGDSIGETPTPGASKRKSRWDETPASQMGGSTPVLTPGKTPIGTPAMNMATPTPGHIMSMTPEQLQAWRWEREIDERNRPLSDEELDAMFPEGYKVLPPPAGYVPIRTPARKLTATPTPLGGMTGFHMQTEDRTMKSVNDQPSGNLPFLKPDDIQYFDKLLVDVDESTLSPEEQKERKIMKLLLKIKNGTPPMRKAALRQITDKAREFGAGPLFNQILPLLMSPTLEDQERHLLVKVIDRILYKLDDLVRPYVHKILVVIEPLLIDEDYYARVEGREIISNLAKAAGLATMISTMRPDIDNMDEYVRNTTARAFAVVASALGIPSLLPFLKAVCKSKKSWQARHTGIKIVQQIAILMGCAILPHLRSLVEIIEHGLVDEQQKVRTISALAIAALAEAATPYGIESFDSVLKPLWKGIRQHRGKGLAAFLKAIGYLIPLMDAEYANYYTREVMLILIREFQSPDEEMKKIVLKVVKQCCGTDGVEANYIKTEILPPFFKHFWQHRMALDRRNYRQLVDTTVELANKVGAAEIISRIVDDLKDEAEQYRKMVMETIEKIMGNLGAADIDHKLEEQLIDGILYAFQEQTTEDSVMLNGFGTVVNALGKRVKPYLPQICGTVLWRLNNKSAKVRQQAADLISRTAVVMKTCQEEKLMGHLGVVLYEYLGEEYPEVLGSILGALKAIVNVIGMHKMTPPIKDLLPRLTPILKNRHEKVQENCIDLVGRIADRGAEYVSAREWMRICFELLELLKAHKKAIRRATVNTFGYIAKAIGPHDVLATLLNNLKVQERQNRVCTTVAIAIVAETCSPFTVLPALMNEYRVPELNVQNGVLKSLSFLFEYIGEMGKDYIYAVTPLLEDALMDRDLVHRQTASAVVQHMSLGVYGFGCEDSLNHLLNYVWPNVFETSPHVIQAVMGALEGLRVAIGPCRMLQYCLQGLFHPARKVRDVYWKIYNSIYIGSQDALIAHYPRIYNDDKNTYIRYELDYIL

How the values were obtained:
Assay in all cases: cryo-EM structure
SF3B1 = target: B3
PHF5A = PHF5A (human (endogenous in FreeStyle 293-F), UniProt Q7RTV0 1-110)
SF3B6 = SF3B6 (human (endogenous in FreeStyle 293-F), UniProt Q9Y3B4 1-125)

Binder	binding result (SF3B1)	binding result (PHF5A)	binding result (SF3B6)
B1	binds	–	–
B2	binds	–	–
B3	–	binds	binds
